In paper PMC12236388, “Investigating the co-assembly of amphipathic peptides” (Faraday Discussions, 2025):
One block for each molecule: values may come before it.

Target: T1, K(FEFK)2K
T1 construct: designed amphipathic self-assembling peptide, L-amino acids; printed in short form K(FEFK)2K and written out here; forms beta-sheet-rich fibres and a hydrogel at pH 7; also called base peptide; peptide 1; source: synthetic peptide; bought: LifeTein Inc. (HCl salt, nominal purity 95%)
T1 peptide: KFEFKFEFKK
Assay: FRET or BRET; FITC/Dabcyl quenching in mixed hydrogels: base peptide 3.75 mg mL^-1 plus secondary peptide, total 7.5 mg mL^-1 (mass ratio 1:1), pH 7, water; powders mixed before dissolving, pH raised stepwise with NaOH; quenching percentage compared with base hydrogels at 3.75 and 7.5 mg mL^-1

- fluorescence quenching percentage: 30%
Molecule: K(FEFK)2K (peptide)

- binding result (both partners purified): binds
B1: (FEFK)2K (peptide)
peptide: FEFKFEFKK
notes: designed amphipathic peptide; printed in short form (FEFK)2K and written out here; source: synthetic peptide; bought: LifeTein Inc. (HCl salt, nominal purity 95%)
